# Laboratory results taken from patent US20140017790A1, “CONTROL AGENT FOR CONTROLLING UNDIFFERENTIATED STATE AND USE THEREOF” (RIKEN, priority 2011, published 2014).
# B1: CCL2: mouse recombinant CCL2 (MCP-1, #479-JE-010, R&D Systems); in Examples 1, 3, 4(1), 5 mouse CCL2 (SEQ ID NO: 3) overexpressed from Ccl2 expression vector (protein, listed as Mus musculus)
# chain: MQVPVMLLGLLFTVAGWSIHVLAQPDAVNAPLTCCYSFTSKMIPMSRLESYKRITSSRCPKEAVVFVTKLKREVCADPKKEWVQTYIKNLDRNQMRSEPTTLFKTASALRSSAPLNVKLTRKSEANASTTFSTTTSSTSVGVTSVTVN
# What was measured:
# Format in all cases: cell-based
# human iPS cells [1] = assay: phase-contrast morphology of human iPS cells with JAK or PI3K inhibitor; conditions: inhibitor not added (DMSO added), 6 days; bFGF(+)/CCL2(-) or bFGF(-)/CCL2(+)
# Method: As a JAK inhibitor, a JAK inhibitor I (Merck) was used. As PI3K inhibitor, the same LY294002 as used in Example 4 was used. Human iPS cells were cultured for 6 days under feeder conditions in the same manner as in the above item (1), except that not only the CCL2 but also the JAK inhibitor or the PI3K inhibitor further was added to the medium. In the medium, the concentration of the Jak inhibitor was set to 10 ng/ml, and the concentration of the PI3K inhibitor was set to 5 ng/ml.
# Furthermore, as a control, the cells were cultured in the same manner as in the above using the following media, respectively: a medium containing bFGF instead of the CCL2 and containing DMSO (5 ng/ml) instead of the inhibitor; and a medium containing bFGF (5 ng/ml) instead of the CCL2 and containing the inhibitor.
# The phase-contrast micrographs show the results obtained under the conditions of, from the above: the inhibitor not added (DMSO added); the JAK inhibitor added; and the PI3K inhibitor added.
# human iPS cells [2] = assay: EB formation and spontaneous differentiation, cell morphology; conditions: third day from the plating; iPS cells precultured 6 days with the substance
# Method: Human iPS cells were cultured for 6 days under feeder conditions in the same manner as in Example 7. Thereafter, embryonic bodies (EBs) were produced. EB formation is known as a spontaneous differentiation-inducing method for inducing the differentiation of iPS cells. Specifically, first, a ROCK inhibitor (Y-27632, WAKO) was added to the culture solution being used for the culture of the human iPS cells so that the concentration thereof was […], and the human iPS cells were cultured for 1 hour under the conditions of 37° C. and 5% CO2. Then, the feeder cells used for the culture were dissociated with a human ES/iPS cell dissociation solution (CTK solution), and the human iPS cells were collected. Then, 1×10^6 of the human iPS cells were seeded in an ultra-low adhesion culture vessel, and cultured for 6 days in an EB preparation medium (DMEM/F12, Knockout SR, L-glutamine, NEAA (non-essential amino acid (GIBCO)), 2-ME, Pen/Strep). The medium was replaced every two days.
# Next, spontaneous differentiation was induced. Specifically, the produced EBs were seeded in gelatin coated dishes so that each gelatin coated dish contained one EB. Each EB was cultured for 14 days in a medium (DMEM) containing 20% FBS, and then observed with a microscope. The medium was replaced every two days. The photographs in FIG. 18 show the cell morphology on the third day from the plating.
# human iPS cells [3] = assay: culture of human iPS cells in feeder free media, EB plating, cell adhesion
# Source text: As undifferentiated cells, the same human iPS cells as used in Example 7 were used. As CCL2, the mouse recombinant CCL2 used in the item (1) of Example 2 was used. As feeder free media, the following three kinds of media were provided by adding or not adding the CCL2, LIF and bFGF to the medium for human stem cells used in Example 8. Specifically, the media used were as follows: the medium with CCL2 not added (−)/LIF not added (−)/bFGF added (+); the medium with CCL2 added (+)/LIF not added (−)/bFGF not added (−); and the medium with CCL2 added (+)/LIF added (+)/bFGF not added (−). In each medium, the concentration of the LIF was set to 50 units/ml, the concentration of the CCL2 was set to 500 ng/ml, and the concentration of the bFGF was set to 5 ng/ml. Then, the human iPS cells were cultured for 6 days using each medium, and EBs were produced. Thereafter, the thus-produced EBs were seeded in gelatin coated dishes so that each gelatin coated dish contained one EB, and cultured for 5 days in a medium (DMEM) containing 20% FBS.
# The photographs in FIG. 20 show the cell morphologies of the EBs on the 5th day from the plating.
# mouse iPS cells = assay: quantitative RT-PCR of undifferentiated marker genes, recombinant CCL2 added to mouse iPS cells under feeder free conditions
# Method: A PrimeScript RT-PCR Kit (trade name, TAKARA BIO INC.), an ABI 7500 Fast real time PCR system (trade name, Applied BioSystems), and a SYBR (registered trademark) Premix Ex Taq (trade name, TAKARA BIO INC.) were used in accordance with their protocols. PCR was carried out by conducting 40 cycles of treatment with a treatment at 94° C. for 5 second and at 62.5° C. for 20 seconds as 1 cycle. The expression level of each gene was calculated by normalizing the relative amount of mRNA in the gene to Gapdh mRNA according to the 2^−ΔΔ^CT method (Thomse R, Solvsten C A, Linnet T E, et al., Analysis of qPCR data by converting exponentially related Ct values into linearly related XO values. J Bioinform Comput Biol 2010: 8: 885-900.).
# The medium of a negative control used was the above-described DMEM containing the above-described LIF. […]
# Furthermore, after the culture of the mouse iPS cells, the expression level of the Tbx3 gene was determined in the same manner as in the item (1) of Example 1. Then, the fold change in expression level relative to the negative control was calculated. […]
# The mouse iPS cells cultured under the feeder free conditions were cultured in the medium of the example and the medium of the comparative example, respectively. […] 24 hours after the culture, the expression levels of the undifferentiated marker genes were determined in the same manner as in the item (1) of Example 1. […]
molecule,measurement,setting,value
B1,"undifferentiation potency, cell morphology",human iPS cells [1],little differentiated cells
same,morphology of EB after spontaneous differentiation-inducing culture,human iPS cells [2],ES cell-like morphology
same,cell adhesion,"human iPS cells [3]; CCL2 500 ng/ml + LIF 50 units/ml, bFGF not added",observed
same,colony growth,"human iPS cells [3]; CCL2 500 ng/ml + LIF 50 units/ml, bFGF not added, culture for 5 days",observed
same,cell adhesion,"human iPS cells [3]; LIF not added, CCL2 500 ng/ml alone or bFGF 5 ng/ml alone",observed
same,expression level of the Tbx3 gene,mouse iPS cells; recombinant CCL2 500 ng/ml added to PI3K inhibitor 5 ng/ml + LIF 25 units/ml,further increase
same,expression of each undifferentiated marker gene,"mouse iPS cells; recombinant CCL2 2500 ng/ml, no LIF, feeder free, 24 hours, relative to LIF 1000 units/ml",increased markedly
